# Results taken from patent US11077159B2, “Compositions from halophyte plants and methods of use thereof” (KHALIFA UNIVERSITY OF SCIENCE AND TECHNOLOGY, priority 2017, dated 2021).
# Values joined by “and” are separate entries in the source; they are usually repeats but may differ in a detail not shown here. Identical values can stand only once.
# B1: EGF: control (EGF) at 10 ng/ml in the wound recovery assay (protein, UniProt P01133 23-1207, looked up)
# Pro-epidermal growth factor: PQHWSCPEGTLAGNGNSTCVGPAPFLIFSHGNSIFRIDTEGTNYEQLVVDAGVSVIMDFHYNEKRIYWVDLERQLLQRVFLNGSRQERVCNIEKNVSGMAINWINEEVIWSNQQEGIITVTDMKGNNSHILLSALKYPANVAVDPVERFIFWSSEVAGSLYRADLDGVGVKALLETSEKITAVSLDVLDKRLFWIQYNREGSNSLICSCDYDGGSVHISKHPTQHNLFAMSLFGDRIFYSTWKMKTIWIANKHTGKDMVRINLHSSFVPLGELKVVHPLAQPKAEDDTWEPEQKLCKLRKGNCSSTVCGQDLQSHLCMCAEGYALSRDRKYCEDVNECAFWNHGCTLGCKNTPGSYYCTCPVGFVLLPDGKRCHQLVSCPRNVSECSHDCVLTSEGPLCFCPEGSVLERDGKTCSGCSSPDNGGCSQLCVPLSPVSWECDCFPGYDLQLDEKSCAASGPQPFLLFANSQDIRHMHFDGTDYGTLLSQQMGMVYALDHDPVENKIYFAHTALKWIERANMDGSQRERLIEEGVDVPEGLAVDWIGRRFYWTDRGKSLIGRSDLNGKRSKIITKENISQPRGIAVHPMAKRLFWTDTGINPRIESSSLQGLGRLVIASSDLIWPSGITIDFLTDKLYWCDAKQSVIEMANLDGSKRRRLTQNDVGHPFAVAVFEDYVWFSDWAMPSVMRVNKRTGKDRVRLQGSMLKPSSLVVVHPLAKPGADPCLYQNGGCEHICKKRLGTAWCSCREGFMKASDGKTCLALDGHQLLAGGEVDLKNQVTPLDILSKTRVSEDNITESQHMLVAEIMVSDQDDCAPVGCSMYARCISEGEDATCQCLKGFAGDGKLCSDIDECEMGVPVCPPASSKCINTEGGYVCRCSEGYQGDGIHCLDIDECQLGEHSCGENASCTNTEGGYTCMCAGRLSEPGLICPDSTPPPHLREDDHHYSVRNSDSECPLSHDGYCLHDGVCMYIEALDKYACNCVVGYIGERCQYRDLKWWELRHAGHGQQQKVIVVAVCVVVLVMLLLLSLWGAHYYRTQKLLSKNPKNPYEESSRDVRSRRPADTEDGMSSCPQPWFVVIKEHQDLKNGGQPVAGEDGQAADGSMQPTSWRQEPQLCGMGTEQGCWIPVSSDKGSCPQVMERSFHMPSYGTQTLEGGVEKPHSLLSANPLWQQRALDPPHQMELTQ
# modifications: Pro-epidermal growth factor
# notes: control (EGF) at 10 ng/ml in the wound recovery assay
# System: NHEK
# Experiment: Migration/proliferation of NHEK, wound recovery by kinetic image analysis
# Type: cell-based, human
# Settings: 10 ng/ml, single image
# Procedure: Botanical extracts were evaluated for anti-aging, cell renewal and anti-inflammatory properties via systemic application (diluted in the culture medium) using the concentrations that were determined not toxic for skin cells (0.1 mg/ml) followed by two successive 3-fold dilutions. The matrix metalloproteinase-1 (MMP-1) assay using a specific ELISA kit was used to evaluate anti-aging properties. The migration/proliferation of NHEK using kinetic image analysis of the wound recovery was used to evaluate cell renewal properties. The IL-8 release on NHEK stimulated by PMA using a specific ELISA kit was used to evaluate anti-inflammatory properties.
molecule,measurement,setting,value
B1,Wound area,16 hours,0.86 mm^2 and 0.69 mm^2 and 0.89 mm^2
same,Wound area,24 hours,0.64 mm^2 and 0.44 mm^2 and 0.63 mm^2
